Experiments:
[1] = compound: O=P(O)(O)OC[C@H]1O[C@@H](O)[C@H](O)[C@@H]1O; assay: Competitive inhibition of Spinacia oleracea RPIA assessed as Km using D-ribose-5-phosphate as substrate
[2] = compound: O=P(O)(O)OC[C@H]1O[C@@H](O)[C@H](O)[C@@H]1O; assay: Competitive inhibition of Spinacia oleracea RPIA assessed as Km using D-ribose-5-phosphate as substrate by ultraviolet absorbance based spectrophotometric analysis
[3] = compound: O=P(O)(O)OC[C@H]1O[C@@H](O)[C@H](O)[C@@H]1O; assay: Competitive inhibition of Spinacia oleracea RPIA assessed as Km using D-ribose-5-phosphate as substrate by Michaelis-Menten kinetics analysis
[4] = compound: O=P(O)(O)OC[C@H]1O[C@@H](O)[C@H](O)[C@@H]1O; assay: Competitive inhibition of Escherichia coli RPIB assessed as Km using D-ribose-5-phosphate as substrate
[5] = compound: O=P(O)(O)OC[C@H]1O[C@@H](O)[C@H](O)[C@@H]1O; assay: Competitive inhibition of Escherichia coli RPIB assessed as Km using D-ribose-5-phosphate as substrate by spectrophotometric analysis
[6] = compound: O=P(O)(O)OC[C@H]1O[C@@H](O)[C@H](O)[C@@H]1O; assay: Competitive inhibition of Escherichia coli RPIB assessed as Km using D-ribose-5-phosphate as substrate by ultraviolet absorbance based spectrophotometric analysis
[7] = compound: O=P(O)(O)OC[C@H]1O[C@@H](O)[C@H](O)[C@@H]1O; assay: Competitive inhibition of Mycobacterium tuberculosis RPIB assessed as Km using D-ribose-5-phosphate as substrate
[8] = compound: O=P(O)(O)OC[C@H]1O[C@@H](O)[C@H](O)[C@@H]1O; assay: Competitive inhibition of Mycobacterium tuberculosis RPIB assessed as Km using D-ribose-5-phosphate as substrate by spectrophotometric analysis
[9] = compound: O=P(O)(O)OC[C@H]1O[C@@H](O)[C@H](O)[C@@H]1O; assay: Competitive inhibition of Mycobacterium tuberculosis RPIB assessed as Km using D-ribose-5-phosphate as substrate by ultraviolet absorbance based spectrophotometric analysis
[10] = compound: O=P(O)(O)OC[C@H]1O[C@@H](O)[C@H](O)[C@@H]1O; assay: Competitive inhibition of Mycobacterium tuberculosis H37Rv RPIB extracted from Escherichia coli BL21 assessed as Km using D-ribose-5-phosphate as substrate incubated for 10 mins by ultraviolet absorbance based spectrophotometric analysis

B1: ribose-5-phosphate isomerase (Spinacia oleracea), Q8RU73 (protein)
chain: MASAAFSLLPSTSSTTFNRHATTKLLNLKFLHNHRNKPFFTTTIKSLSSPSPTPVLTQDDLKKLAAEKAVDSVKSGMVLGLGTGSTAAFAVSRIGELLSAGKLTNIVGIPTSKRTAEQAASLGIPLSVLDDHPRIDLAIDGADEVDPDLNLVKGRGGALLREKMVEAASDKFIVVVDDTKLVDGLGGSRLAMPVEVVQFCWKYNLKRLQEIFKELGCEAKLRMEGDSSPYVTDNSNYIVDLYFPTSIKDAEAAGREISALEGVVEHGLFLGMASEVIIAGKTGVSVKTK
What does the source list for B1?
Km [1]: 3000 µM; Km [2]: 3300 µM; Km [3]: 7500 µM

B2: Ribose-5-phosphate isomerase B (Escherichia coli (strain K12)), P37351 (protein)
chain: MKKIAFGCDHVGFILKHEIVAHLVERGVEVIDKGTWSSERTDYPHYASQVALAVAGGEVDGGILICGTGVGISIAANKFAGIRAVVCSEPYSAQLSRQHNDTNVLAFGSRVVGLELAKMIVDAWLGAQYEGGRHQQRVEAITAIEQRRN
How did the Km [4] turn out when B2 was run?
Its Km is 1600 µM.

What about the Km [5] of the same protein?
Its Km is 1500 µM.

What about the Km [6] of the same protein?
The Km was 1100 µM.

B3: Ribose-5-phosphate isomerase B (Mycobacterium tuberculosis), P9WKD7 (protein)
chain: MSGMRVYLGADHAGYELKQRIIEHLKQTGHEPIDCGALRYDADDDYPAFCIAAATRTVADPGSLGIVLGGSGNGEQIAANKVPGARCALAWSVQTAALAREHNNAQLIGIGGRMHTVAEALAIVDAFVTTPWSKAQRHQRRIDILAEYERTHEAPPVPGAPA
For B3, which Km [7] is on record?
The Km was 2100 µM.

What about the Km [8] of the same protein?
The Km was 3100 µM.

And the Km [9]?
The Km was 1000 µM.

And the Km [10]?
The Km was 3700 µM.
